Measured values reported in patent US20110027291A1, “METHODS, SYSTEMS AND PRODUCTS FOR PREDICTING RESPONSE OF TUMOR CELLS TO A THERAPEUTIC AGENT AND TREATING A PATIENT ACCORDING TO THE PREDICTED RESPONSE” (MERRIMACK PHARMACEUTICALS, INC., priority 2008, published 2011).

Tests used:
[1] = target: T1, ErbB1 phosphorylation (pErbB1) in NCI-ADRr cells (Homo sapiens, UniProt P00533); assay: ErbB1 phosphorylation dose response curves for ErbB ligands (ELISA); assay type: cell-based
T1 construct: endogenous in cells; host or cells: NCI-ADRr (ADRr) cells
Method: (§1) For stimulation of the cells, the cells are seeded in 100 μl complete media at 35,000 cells per well in 96 well tissue culture plates and incubated overnight in a humidified atmosphere of 5% CO2, 95% air and 37 degrees Celsius. Cells are then switched to serum free media: RPMI-1640 media (Gibco) supplemented with, 2 mM L-glutamine (Gibco) and units/mL Pen-Strep (Gibco). Starved cells are incubated in a humidified atmosphere of 5% CO2, 95% air and 37 degrees Celsius for 20-24 hours prior to stimulation.
(§2) Levels of protein phosphorylation in the stimulated cells are measured by ELISA. Capture antibodies against ErbB1 (R&D Systems, AF231), ErbB2 (R&D Systems, MAB1129), ErbB3 (R&D Systems, MAB3481) and AKT (Upstate, 05-591MG) are incubated in 384 well black flat-bottom polystyrene high-binding plates (Corning, Catalog #3708) overnight at room temperature. The ELISA plates are blocked with 2% bovine serum albumin (BSA) and phosphate buffered saline (PBS) for one hour then incubated with lysates diluted in 2% BSA, 0.1% Tween-20 and PBS for two hours at room temp. In between each incubation, the plates are washed three times with 0.05% Tween-20 in PBS. ELISAs for measuring phospho-ErbB1, -ErbB2 and -ErbB3 are incubated with phospho-tyrosine horseradish peroxidase (HRP) linked monoclonal antibody (R&D Systems, HAM 1676) for two hours. ELISAs measuring phospho-AKT are incubated with primary serine 473 specific anti-phospho AKT mouse monoclonal antibody (Cell Signaling Technologies, Catalog #5102) for 2 hours, then incubated with Streptavidin-HRP(R&D Systems, Catalog #DY998) for 30 minutes. All ELISAs are visualized with SuperSignal ELISA Pico Chemiluminescent Substrate (Pierce, Catalog #37069) and luminescent signal is measured using a luminometer.

[2] = target: T2, ErbB2 (Homo sapiens, UniProt P04626); assay: Lapatinib rate constants from the literature: ErbB2 (Table 13); assay type: binding
[3] = target: T2, ErbB2; details: cited from earlier work
[4] = target: ErbB1 on NCI-ADRr cells (UniProt P00533); assay: cell-based or functional assay
[5] = tested on: ErbB2 phosphorylation (pErbB2) in NCI-ADRr cells; assay: ErbB2 phosphorylation dose response curves for ErbB ligands (ELISA); assay type: cell-based
Method: as §1, §2

[6] = tested on: AKT phosphorylation (pAKT) in NCI-ADRr cells; assay: AKT phosphorylation dose response curves for ErbB ligands (ELISA); assay type: cell-based
Method: as §1, §2

[7] = tested on: ErbB3 phosphorylation (pErbB3) in NCI-ADRr cells; assay: ErbB3 phosphorylation dose response curves for ErbB ligands (ELISA); assay type: cell-based
Method: as §1, §2

[8] = target: ErbB1 (Homo sapiens, UniProt P00533); assay: ErbB signaling computational model: BTC ligand binding parameters; details: model parameter
Source text: (§3) The ErbB receptor signaling network model consists of three receptors (ErbB1, ErbB2, ErbB3), a receptor phosphatase, phosphatidylinositol 3-kinase (PI3K, which binds the receptors) and components of the PI3K-AKT cascade (phosphatidylinositol bisphosphate, PIP2, phosphoinositide-dependent protein kinase, PDK1, PTEN deleted from chromosome 10, PTEN, serine, threonine protein kinase also known as protein kinase B, AKT, Protein phosphatase 2A, PP2A) (see Table 8 below).
(§4) Included in the model were the ligand-induced dimerization, internalization, recycling, and degradation as described in the literature for all homo- and heterodimers (Hendriks, B. S. et al. (2003) J. Biol. Chem. 278:23343-23351; Wang, Z. et al. (1999) Mol. Biol. Cell 10:1621-1636). Receptor dimer stabilities, using the relative scale as published in Shankaran, H. et al. (2008) Biochem. Biophys. Res. Commun. 371:220-224, were implemented, where the coexpression of […] biases signaling to the cell surface and retards signal downregulation and where the simultaneous coexpression of ErbB1-3 leads to an abundance of ErbB2-ErbB3 heterodimers. Therefore, ErbB3-containing dimers internalize and degrade slower than do ErbB1 homodimers or ErbB1-ErbB2 heterodimers. Constitutive dimerization was also included, although ligand-free dimers were assumed not to trigger any downstream signaling (Yu, X. et al. (2002) Mol. Biol. Cell 13:2547-2557) and to remain at the cell surface. ErbB ligands bind with different affinities to ErbB homo- and heterodimers (Teramura, Y. et al. (2006) EMBO J. 25:4215-4222), but to reduce the number of kinetic parameters to be estimated and to describe the experimental data with the simplest model possible, we constrained the binding affinity of the ligands to ErbB homo- and heterodimers to be the same.
(§5) Many of the reaction rate parameters are unknown in the cell system we studied and therefore had to be estimated (see Table 10 below). To avoid biasing the starting point, all parameters were set to default values (Aldridge, B. B. et al. (2006) Nat. Cell. Biol. 8:1195-1203). The number of parameters estimated was limited by performing the estimation in two stages: first the model was calibrated against the experimentally observed ErbB receptor phosphorylation data; second, the parameters sensitive to AKT phosphorylation were optimized against the experimental data. Estimated values were only accepted if the parameters were constrained under multiple parameter runs using a genetic algorithm with a population size of 50 and 25 generations (Mathworks, MA). […] The normalized sensitivities of each species were integrated over the two hour stimulation, and parameters with normalized, integrated sensitivities greater than an arbitrary threshold of 1000 are listed in Table 11 below. As mentioned above, ErbB4 phosphorylation was not included into the parameter estimation because the cell line studied had barely detectable ErbB4 (see Table 3 below). ErbB4 reactions are parameterized according to ErbB3 reactions.

[9] = target: ErbB3 (Homo sapiens, UniProt P21860); assay: ErbB signaling computational model: HRG ligand binding parameters; details: model parameter
Source text: as §3, §4, §5

[10] = target: ErbB3 on NCI-ADRr cells (UniProt P21860); assay: cell-based or functional assay

## TGFα: transforming growth factor alpha, ErbB1 binding ligand
[1]
  EC50: 30 nM

## CS(=O)(=O)CCNCc1ccc(-c2ccc3ncnc(Nc4ccc(OCc5cccc(F)c5)c(Cl)c4)c3c2)o1 [lapatinib]
[2]; 2-2 dimers
  kfLapatinib_4: Lapatinib inhibitor binding to 2-2 dimers: 3.00E−12 molecules^−1 sec^−1
[2]; unit conversion from M^−1s^−1 /(Vmedia * Av/Num_cells)
  kfLapatinib_2: Lapatinib inhibitor binding from ErbB2 or 2-3 dimers: 1.50E−12 molecules^−1 sec^−1
[3]
  Lapatinib inhibitor binding from ErbB2 or 2-3 dimers (on-rate before unit conversion): Unit conversion calculated as 2.95e3 M^−1s^−1/
  krLapatinib_2: Lapatinib inhibitor dissociation to ErbB2 or 2-3 dimers: 3.83e-05 s⁻¹

## transforming growth factor alpha (from UniProt P01135 40-89) (ligand)
[4]
  EC50 [nM] of pErbB1 dose response, NCI-ADRr cells: 30 nM

## HB-EGF: heparin-binding epidermal growth factor, ErbB ligand
[5]
  EC50: 230 nM
  pErbB2 % stimulation at 5 min relative to maximum: 94.0%
[1]
  EC50: 21 nM
  pErbB1 % stimulation at 5 min relative to maximum: 87.0%
[6]
  pAKT % stimulation at 5 min relative to maximum: 20.0%
[7]
  pErbB3 % stimulation at 5 min relative to maximum: 32.0%

## AR: amphiregulin, ErbB1 binding ligand
[5]
  pErbB2 % stimulation at 5 min relative to maximum: 54.0%
[1]
  EC50: 37 nM
  pErbB1 % stimulation at 5 min relative to maximum: 95.0%
[6]
  pAKT % stimulation at 5 min relative to maximum: 28.0%
[7]
  EC50: 380 nM
  pErbB3 % stimulation at 5 min relative to maximum: 17.0%

## BTC: betacellulin, ErbB ligand which binds primarily to ErbB1
[8]
  kf3: BTC binding to E1: 5.00 × 10^−11 molecules-1 sec-1
  kr3: BTC dissociation from E1: 0.001 s⁻¹
[8]; E1 heterodimers
  kf5: BTC binding to E1 heterodimers: 5.00 × 10^−11 molecules-1 sec-1
[8]; E1 homodimers
  kf4: BTC binding to E1 homodimers: 5.00 × 10^−11 molecules-1 sec-1
[8]; endosome
  kf129: BTC binding in the endosome: 3.8 molecules-1 sec-1
[1]
  EC50: 5.7 nM
[7]
  EC50: 100 nM

## heparin-binding epidermal growth factor (from UniProt Q99075 63-148) (ligand)
[4]
  EC50 [nM] of pErbB1 dose response, NCI-ADRr cells: 21 nM
  EC50 [nM] of pErbB2 dose response, NCI-ADRr cells: 230 nM
  pAKT, % stimulation at 5 min relative to maximum, NCI-ADRr cells: 20%
  pErbB1, % stimulation at 5 min relative to maximum, NCI-ADRr cells: 87%
  pErbB2, % stimulation at 5 min relative to maximum, NCI-ADRr cells: 94%
  pErbB3, % stimulation at 5 min relative to maximum, NCI-ADRr cells: 32%

## HRG1-β: heregulin, ErbB receptor ligand which binds to ErbB3 and ErbB4
[5]
  EC50: 7 nM
  pErbB2 % stimulation at 5 min relative to maximum: 43.0%
[1]
  pErbB1 % stimulation at 5 min relative to maximum: 0.0%
[9]
  kr1: HRG dissociation from E3: 0.001 s⁻¹
[9]; E3:E2 dimers
  kf2: HRG binding to E3:E2 dimers: 5.00 × 10^−11 molecules-1 sec-1
  kr2: HRG dissociation from E3:E2 dimers: 0.001 s⁻¹
[9]; endosome
  kf127: HRG binding in the endosome: 3.8 molecules-1 sec-1
[9]; unit conversion from 1e5M-1s-1
  kf1: HRG binding to E3 or E4: 5.00 × 10^−11 molecules-1 sec-1
[6]
  EC50: 1.9 nM
  pAKT % stimulation at 5 min relative to maximum: 100.0%
[7]
  EC50: 9.9 nM
  pErbB3 % stimulation at 5 min relative to maximum: 100.0%

## betacellulin (from UniProt P35070 32-111) (ligand)
[4]
  EC50 [nM] of pErbB1 dose response, NCI-ADRr cells: 5.7 nM
  EC50 [nM] of pErbB3 dose response, NCI-ADRr cells: 100 nM

## Epiregulin: epiregulin, ErbB ligand
[5]
  pErbB2 % stimulation at 5 min relative to maximum: 18.0%
[1]
  pErbB1 % stimulation at 5 min relative to maximum: 9.0%
[6]
  pAKT % stimulation at 5 min relative to maximum: 11.0%

B1: amphiregulin (ligand, UniProt P15514 101-198, looked up)
chain: SVRVEQVVKPPQNKTESENTSDKPKRKKKGGKNGKNRRNRKKKNPCNAEFQNFCIHGECKYIEHLEAVTCKCQQEYFGERCGEKSMKTHSMIDSSLSK
[4]
  EC50 [nM] of pErbB1 dose response, NCI-ADRr cells: 37 nM
  EC50 [nM] of pErbB3 dose response, NCI-ADRr cells: 380 nM
  pAKT, % stimulation at 5 min relative to maximum, NCI-ADRr cells: 28%
  pErbB1, % stimulation at 5 min relative to maximum, NCI-ADRr cells: 95%
  pErbB2, % stimulation at 5 min relative to maximum, NCI-ADRr cells: 54%
  pErbB3, % stimulation at 5 min relative to maximum, NCI-ADRr cells: 17%

B2: heregulin HRG1-β (ligand, UniProt Q02297-6 177-241, looked up)
chain: SHLVKCAEKEKTFCVNGGECFMVKDLSNPSRYLCKCPNEFTGDRCQNYVMASFYKHLGIEFMEAE
[10]
  EC50 [nM] of pAKT dose response, NCI-ADRr cells: 1.9 nM
  EC50 [nM] of pErbB2 dose response, NCI-ADRr cells: 7 nM
  EC50 [nM] of pErbB3 dose response, NCI-ADRr cells: 9.9 nM
  pAKT, % stimulation at 5 min relative to maximum, NCI-ADRr cells: 100%
  pErbB1, % stimulation at 5 min relative to maximum, NCI-ADRr cells: 0%
  pErbB2, % stimulation at 5 min relative to maximum, NCI-ADRr cells: 43%
  pErbB3, % stimulation at 5 min relative to maximum, NCI-ADRr cells: 100%

B3: Epigen (ligand, UniProt Q6UW88 24-104, looked up)
chain: AVTVTPPITAQQGNWTVNKTEADNIEGPIALKFSHLCLEDHNSYCINGACAFHHELEKAICRCFTGYTGERCEHLTLTSYA
[5]
  pErbB2 % stimulation at 5 min relative to maximum: 25.0%
[1]
  pErbB1 % stimulation at 5 min relative to maximum: 12.0%
[6]
  pAKT % stimulation at 5 min relative to maximum: 11.0%
[4]
  pAKT, % stimulation at 5 min relative to maximum, NCI-ADRr cells: 11%
  pErbB1, % stimulation at 5 min relative to maximum, NCI-ADRr cells: 12%
  pErbB2, % stimulation at 5 min relative to maximum, NCI-ADRr cells: 25%
  pErbB3, % stimulation at 5 min relative to maximum, NCI-ADRr cells: 3%
[7]
  pErbB3 % stimulation at 5 min relative to maximum: 3.0%
